Test results taken from patent US20240141027A1 (BIOARCTIC, published 2024).

Experiments:
[1] = target: T1, recombinant murine transferrin receptor 1 (mTfR1), extracellular domain fused to a His-tag (murine, UniProt Q62351 89-763); assay: indirect ELISA, plates coated with recombinant mTfR1
T1 construct: Position of the His-tag (N or C) unknown; also called recombinant mTfR1; murine TfR1; not shown: His-tag
Experimental: Binding of selected expressed constructs to mTfR1 was assessed by indirect ELISA (FIG. 4). In brief, half area 96-well plates (Corning, #3690) were coated with 1 μg/ml recombinant mTfR1, produced as described in Example 4, in PBS overnight at 4° C. The coated plates were blocked using Pierce protein-free blocking solution (Thermo Fisher Scientific, #37572) for 1 h at room temperature with shaking and washed four times in PBS containing 0.1% TWEEN-20. Serial dilutions (1:3) of expressed constructs in incubation buffer (1% BSA, 0.1% TWEEN-20 in PBS) were incubated for 1 h at room temperature. Following the four wash steps, bound test constructs were detected by addition of anti-mouse-IgG F(ab′)2-HRP antibody (Jackson Immuno Research, #115-035-006) at 1:1250 dilution in incubation buffer (1 h, room temperature). Following four wash steps, K-Blue® Aqueous TMB substrate (Neogen, #331177) was added to the wells for 15 min at room temperature before the reaction was stopped with 1:1 dilution of 0.5 M H₂SO₄. The optical density at 450 nm was recorded (Spark, Tecan) and background signal was subtracted before analysis.

[2] = target: T2, mTfR1 expressed on cell surfaces of Immortalized Mouse Cerebral Capillary Endothelial Cells (cEND) (mouse, UniProt Q62351 1-763); assay: flow cytometry on cEND cells, 100 nM, 4° C., anti-mouse IgG-PE
T2 construct: whole, on cells; also called mTfR1 on cEND cells
T2 sequence (Q62351 whole entry): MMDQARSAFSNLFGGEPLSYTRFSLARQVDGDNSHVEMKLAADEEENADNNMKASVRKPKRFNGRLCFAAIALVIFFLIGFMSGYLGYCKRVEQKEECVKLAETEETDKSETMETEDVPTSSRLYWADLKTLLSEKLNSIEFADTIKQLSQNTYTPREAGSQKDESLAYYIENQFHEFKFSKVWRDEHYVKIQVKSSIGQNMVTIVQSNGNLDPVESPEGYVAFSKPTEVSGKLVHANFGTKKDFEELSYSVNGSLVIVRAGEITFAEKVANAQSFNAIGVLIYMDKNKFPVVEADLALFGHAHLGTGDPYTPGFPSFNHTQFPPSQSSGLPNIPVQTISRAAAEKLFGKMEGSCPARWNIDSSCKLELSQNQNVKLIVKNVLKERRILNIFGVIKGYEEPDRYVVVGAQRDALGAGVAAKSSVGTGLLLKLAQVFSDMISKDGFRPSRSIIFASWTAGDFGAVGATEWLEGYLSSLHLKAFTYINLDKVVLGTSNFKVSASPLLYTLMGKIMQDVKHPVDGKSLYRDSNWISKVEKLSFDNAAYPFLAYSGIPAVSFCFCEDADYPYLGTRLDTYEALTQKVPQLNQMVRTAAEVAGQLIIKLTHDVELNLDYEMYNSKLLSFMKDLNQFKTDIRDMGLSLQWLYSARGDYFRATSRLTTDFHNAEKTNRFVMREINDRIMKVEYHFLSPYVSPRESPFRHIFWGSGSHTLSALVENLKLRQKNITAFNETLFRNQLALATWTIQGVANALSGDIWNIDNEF
Experimental: Binding and uptake mediated by TfR1 was measured on Immortalized Mouse Cerebral Capillary Endothelial Cells (cEND) (ABM, #T0290).
The pellet was resuspended in PBS and 200,000 cells per well were seeded in U-bottom 96-well Corning plates for flow cytometry staining. Cells were then washed with PBS and incubated with 100 nM of one of the mAb158-8D3 constructs mAb158-scLc-8D3-Ig.1, mAb158-scLc-8D3-Ig.2 and mAb158-scLc-8D3-Ig.3, control 8D3 IgG (light chain of SEQ ID NO:17, heavy chain of SEQ ID NO:19) or murine IgG control for 45 min at 4° C. After primary incubation, cells were washed twice with ice cold PBS, and mAb158-8D3 constructs were captured using a fluorescently labeled secondary anti-mouse IgG-PE antibody (BD Biosciences, 550589). After incubation, cells were washed twice with PBS and resuspended in 200 μl PBS. Cells were acquired in a BD FACSLyric flow cytometer system (BD Biosciences) and samples were analyzed using FCS Express software (De Novo Software).

[3] = target: T1, recombinant murine transferrin receptor …; assay: BLI (Octet), mTfR1 captured on biotinylated human holo-transferrin on streptavidin sensors
Experimental: Binding of expressed constructs to mTfR1 was assessed by Bio-Layer Interferometry (Octet RED384, ForteBio). High-precision streptavidin sensors were loaded in two consecutive steps: first with 20 μg/ml of biotinylated human holo-transferrin (Sigma) during 180 s and then with 20 μg/ml recombinant mTfR1, produced as described in Example 4, during 180 s. Thereafter, association of the samples to the loaded sensors was measured for 120 s, followed by dissociation for 300 s. Binding was analyzed with samples diluted to 17.5 μg/ml for mAb158-scLc-8D3-Ig.1 and mAb158-scLc-8D3-Ig.2, to 18 μg/ml for mAb158-scLc-8D3-Ig.3 and to 4.9 μg/ml for 8D3 Fab (corresponding to 100 nM of respective binding molecule). The response from a buffer sample was subtracted. All samples were diluted in 1× Kinetics buffer (ForteBio). The same buffer was used for baseline and dissociation steps. […] As controls, the 8D3 Fab and the antibody mAb158 IgG were included.

[4] = target: T1, recombinant murine transferrin receptor …; assay: BLI (Octet), mTfR1 captured on holo-transferrin sensors, analyte 50 nM
[5] = target: T3, recombinant Aβ1-42; assay: indirect ELISA, plates coated with recombinant Aβ1-42
T3 construct: Coated at 0.5 µg/ml on ELISA plates; also called Amyloid Beta (Aβ1-42)
T3 sequence (peptide, as listed by the source): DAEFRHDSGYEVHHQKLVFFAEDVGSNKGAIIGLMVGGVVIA

T1 sequence (Q62351 89-763): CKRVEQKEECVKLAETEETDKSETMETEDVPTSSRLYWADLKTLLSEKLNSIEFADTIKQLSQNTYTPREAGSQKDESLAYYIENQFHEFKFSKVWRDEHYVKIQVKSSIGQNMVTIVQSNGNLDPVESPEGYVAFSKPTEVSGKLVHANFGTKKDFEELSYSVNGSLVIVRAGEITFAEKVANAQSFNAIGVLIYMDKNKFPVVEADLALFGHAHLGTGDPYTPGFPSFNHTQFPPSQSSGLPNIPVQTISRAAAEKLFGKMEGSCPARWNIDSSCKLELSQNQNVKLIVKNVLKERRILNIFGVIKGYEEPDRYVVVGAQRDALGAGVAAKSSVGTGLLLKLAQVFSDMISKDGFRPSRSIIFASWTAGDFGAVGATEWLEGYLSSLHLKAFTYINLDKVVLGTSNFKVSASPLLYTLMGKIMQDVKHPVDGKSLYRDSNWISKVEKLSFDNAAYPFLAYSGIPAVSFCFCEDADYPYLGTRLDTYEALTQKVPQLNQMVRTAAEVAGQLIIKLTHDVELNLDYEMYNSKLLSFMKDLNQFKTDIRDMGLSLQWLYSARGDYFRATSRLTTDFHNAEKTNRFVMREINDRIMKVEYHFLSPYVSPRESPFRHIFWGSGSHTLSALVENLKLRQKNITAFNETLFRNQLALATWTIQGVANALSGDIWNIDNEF

B1: mAb158-scLc-8D3-Ig.1 (bispecific antibody, human IgG1, kappa)
heavy: not shown
chain: DIVMTQAPLSLPVSLGDQASISCRSSQSIVHSNGNTYLEWYLQKPGQSPKLLIYKVSNRFSGVPDRFSGSGSGTDFTLKISRVEAEDLGIYYCFQGSHVPPTFGGGTKLEIKRADAAPTVSIFPPSSEQLTSGGASVVCFLNNFYPKDINVKWKIDGSERQNGVLNSWTDQDSKDSTYSMSSTLTLTKDEYERHNSYTCEATHKTSTSPIVKSFNRNECGGGGSGGGGSGGGGSEVQLVESGGGLVQPGNSLTLSCVASGFTFSNYGMHWIRQAPKKGLEWIAMIYYDSSKMNYADTVKGRFTISRDNSKNTLYLEMNSLRSEDTAMYYCAVPTSHYVVDVWGQGVSVTVSSGGGGSGGGGSGGGGSDIQMTQSPASLSASLEEIVTITCQASQDIGNWLAWYQQKPGKSPQLLIYGATSLADGVPSRFSGSRSGTQFSLKISRVQVEDIGIYYCLQAYNTPWTFGGGTKLELKRGGSSGSGSGSTGTSSSGTGTSAGTTGTSASTSGSGSDIVMTQAPLSLPVSLGDQASISCRSSQSIVHSNGNTYLEWYLQKPGQSPKLLIYKVSNRFSGVPDRFSGSGSGTDFTLKISRVEAEDLGIYYCFQGSHVPPTFGGGTKLEIKRADAAPTVSIFPPSSEQLTSGGASVVCFLNNFYPKDINVKWKIDGSERQNGVLNSWTDQDSKDSTYSMSSTLTLTKDEYERHNSYTCEATHKTSTSPIVKSFNRNEC
**Q.** Does B1 bind [1]?
**A.** Result: binds

**Q.** Does B1 bind [2]?
**A.** Result: binds

B2: mAb158-scLc-8D3-Ig.4 (bispecific antibody, human IgG1, kappa)
heavy: not shown
chain: DIVMTQAPLSLPVSLGDQASISCRSSQSIVHSNGNTYLEWYLQKPGQSPKLLIYKVSNRFSGVPDRFSGSGSGTDFTLKISRVEAEDLGIYYCFQGSHVPPTFGGGTKLEIKRADAAPTVSIFPPSSEQLTSGGASVVCFLNNFYPKDINVKWKIDGSERQNGVLNSWTDQDSKDSTYSMSSTLTLTKDEYERHNSYTCEATHKTSTSPIVKSFNRNECGGGGSGGGGSGGGGSGGGGSGGGGSGGGGSDIVMTQAPLSLPVSLGDQASISCRSSQSIVHSNGNTYLEWYLQKPGQSPKLLIYKVSNRFSGVPDRFSGSGSGTDFTLKISRVEAEDLGIYYCFQGSHVPPTFGGGTKLEIKRADAAPTVSIFPPSSEQLTSGGASVVCFLNNFYPKDINVKWKIDGSERQNGVLNSWTDQDSKDSTYSMSSTLTLTKDEYERHNSYTCEATHKTSTSPIVKSFNRNECGGGGSGGGGSGGGGSEVQLVESGGGLVQPGNSLTLSCVASGFTFSNYGMHWIRQAPKKGLEWIAMIYYDSSKMNYADTVKGRFTISRDNSKNTLYLEMNSLRSEDTAMYYCAVPTSHYVVDVWGQGVSVTVSSGGGGSGGGGSGGGGSDIQMTQSPASLSASLEEIVTITCQASQDIGNWLAWYQQKPGKSPQLLIYGATSLADGVPSRFSGSRSGTQFSLKISRVQVEDIGIYYCLQAYNTPWTFGGGTKLELKR
notes: Format [LC-L1-LC-L2-scBM]
**Q.** Does B2 bind [3]?
**A.** Result: binds

B3: mAb158-scLc-Ig.6 (antibody, human IgG1, kappa)
heavy: not shown
chain: DIVMTQAPLSLPVSLGDQASISCRSSQSIVHSNGNTYLEWYLQKPGQSPKLLIYKVSNRFSGVPDRFSGSGSGTDFTLKISRVEAEDLGIYYCFQGSHVPPTFGGGTKLEIKRADAAPTVSIFPPSSEQLTSGGASVVCFLNNFYPKDINVKWKIDGSERQNGVLNSWTDQDSKDSTYSMSSTLTLTKDEYERHNSYTCEATHKTSTSPIVKSFNRNECGGGGSGGGGSGGGGSGGGGSGGGGSGGGGSGGGGSGGGGSGGGGSGGGGSDIVMTQAPLSLPVSLGDQASISCRSSQSIVHSNGNTYLEWYLQKPGQSPKLLIYKVSNRFSGVPDRFSGSGSGTDFTLKISRVEAEDLGIYYCFQGSHVPPTFGGGTKLEIKRADAAPTVSIFPPSSEQLTSGGASVVCFLNNFYPKDINVKWKIDGSERQNGVLNSWTDQDSKDSTYSMSSTLTLTKDEYERHNSYTCEATHKTSTSPIVKSFNRNEC
**Q.** Does B3 bind [3]?
**A.** Result: no binding

B4: mAb158-scLc-8D3-Ig.5 (bispecific antibody, human IgG1, kappa)
heavy: not shown
chain: DIVMTQAPLSLPVSLGDQASISCRSSQSIVHSNGNTYLEWYLQKPGQSPKLLIYKVSNRFSGVPDRFSGSGSGTDFTLKISRVEAEDLGIYYCFQGSHVPPTFGGGTKLEIKRADAAPTVSIFPPSSEQLTSGGASVVCFLNNFYPKDINVKWKIDGSERQNGVLNSWTDQDSKDSTYSMSSTLTLTKDEYERHNSYTCEATHKTSTSPIVKSFNRNECGGGGSGGGGSGGGGSGGGGSGGGGSGGGGSGGGGSGGGGSGGGGSGGGGSDIVMTQAPLSLPVSLGDQASISCRSSQSIVHSNGNTYLEWYLQKPGQSPKLLIYKVSNRFSGVPDRFSGSGSGTDFTLKISRVEAEDLGIYYCFQGSHVPPTFGGGTKLEIKRADAAPTVSIFPPSSEQLTSGGASVVCFLNNFYPKDINVKWKIDGSERQNGVLNSWTDQDSKDSTYSMSSTLTLTKDEYERHNSYTCEATHKTSTSPIVKSFNRNECGGGGSGGGGSGGGGSEVQLVESGGGLVQPGNSLTLSCVASGFTFSNYGMHWIRQAPKKGLEWIAMIYYDSSKMNYADTVKGRFTISRDNSKNTLYLEMNSLRSEDTAMYYCAVPTSHYVVDVWGQGVSVTVSSGGGGSGGGGSGGGGSDIQMTQSPASLSASLEEIVTITCQASQDIGNWLAWYQQKPGKSPQLLIYGATSLADGVPSRFSGSRSGTQFSLKISRVQVEDIGIYYCLQAYNTPWTFGGGTKLELKR
notes: Format [LC-L1-LC-L2-scBM]
**Q.** Does B4 bind [3]?
**A.** Result: binds

B5: mAb158 IgG (antibody, V domains shown)
VH: EVKLMESGGGLVQPGGSRKLSCAASGFTFSSFGMHWVRQAPEKGLEWVAYISSGSSTIYYGDTVKGRFTISRDNPKNTLFLQMTSLRSEDTAMYYCAREGGYYYGRSYYTMDYWGQGTSVTVSS
VL: DIVMTQAPLSLPVSLGDQASISCRSSQSIVHSNGNTYLEWYLQKPGQSPKLLIYKVSNRFSGVPDRFSGSGSGTDFTLKISRVEAEDLGIYYCFQGSHVPPTFGGGTKLEIKR
notes: also called unmodified mAb158 IgG control; unmodified mAb158 control
**Q.** Does B5 bind [3]?
**A.** Result: no binding (tested: 50 nM)

B6: mAb158-scLc-8D3-Ig.15 (bispecific antibody, human IgG1, kappa)
heavy: not shown
chain: DIVMTQAPLSLPVSLGDQASISCRSSQSIVHSNGNTYLEWYLQKPGQSPKLLIYKVSNRFSGVPDRFSGSGSGTDFTLKISRVEAEDLGIYYCFQGSHVPPTFGGGTKLEIKRADAAPTVSIFPPSSEQLTSGGASVVCFLNNFYPKDINVKWKIDGSERQNGVLNSWTDQDSKDSTYSMSSTLTLTKDEYERHNSYTCEATHKTSTSPIVKSFNRNECGGGGSGGGGSGGGGSGGGGSGGGGSDIQMTQSPASLSASLEEIVTITCQASQDIGNWLAWYQQKPGKSPQLLIYGATSLADGVPSRFSGSRSGTQFSLKISRVQVEDIGIYYCLQAYNTPWTFGGGTKLELKRGGGGSGGGGSGGGGSEVQLVESGGGLVQPGNSLTLSCVASGFTFSNYGMHWIRQAPKKGLEWIAMIYYDSSKMNYADTVKGRFTISRDNSKNTLYLEMNSLRSEDTAMYYCAVPTSHYVVDVWGQGVSVTVSSGGGGSGGGGSGGGGSGGGGSDIVMTQAPLSLPVSLGDQASISCRSSQSIVHSNGNTYLEWYLQKPGQSPKLLIYKVSNRFSGVPDRFSGSGSGTDFTLKISRVEAEDLGIYYCFQGSHVPPTFGGGTKLEIKRADAAPTVSIFPPSSEQLTSGGASVVCFLNNFYPKDINVKWKIDGSERQNGVLNSWTDQDSKDSTYSMSSTLTLTKDEYERHNSYTCEATHKTSTSPIVKSFNRNEC
notes: Format [LC-L1-scBM-L2-LC]; also called mAb158-scLc-Ig.15
**Q.** Does B6 bind [4]?
**A.** Result: binds

**Q.** Does B6 bind [5]?
**A.** Result: binds
